Source: paper PMC7010297, “How the initiating ribosome copes with ppGpp to translate mRNAs” (PLoS Biology, 2020)
“And” between values parts separate entries of the source, which are not always exact repeats. Equal values may be shown once. Read-outs that look alike come from different tables or passages of the source.

Experiments:
IF2-bound 30S IC = biological target: T1, IF2-bound 30S IC (Escherichia coli, UniProt P0A705); assay: 30S IC formation by MST, guanosine nucleotide titration; assay type: binding; conditions: for MST Average / MST Replicates: Fig 6E; for Kd: Fig 3F, GTP titration;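 for MST Average: lower thermophoresis signal means Bpy-tRNAi dissociation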
T1 construct: 6xHis (N); made in house
Text: To monitor the interaction of initiator tRNA and 30S ribosomal subunits, we used Microscale Thermophoresis (MST) with a fluorescently labelled initiator tRNA (Bpy-tRNAi) (Fig 1B). MST allows to measure fluorescence in a constrained space. Changes on the readout derive from molecular drifts resulting from small thermal equilibrium perturbations. Upon equilibrium perturbations, the patterns of Bpy-tRNAi migration away from the observation space are related to bound and unbound states (Fig 1B). […] On the contrary, a decrease in thermophoresis indicated the dissociation of Bpy-tRNAi. The relation between fluorescence measured at both equilibriums (Ff to Fi, after and prior to the perturbation, respectively) as a function of ligand concentration allowed to determine dissociation constants of the interaction (Fig 1C).
Continuous lines indicate nonlinear regression fittings with a quadratic equation. Three measurements were performed; mean and standard deviation are plotted (S1 Data). (B) as (A) to measure the concentration dependence for each tested guanosine nucleotide at constant IF2 (1 μM). […] Continuous lines show best fits using exponential functions. (D) Formation of 70S IC as measured by Bpy-tRNAi accommodation in the P site of the ribosome; 0.1 μM 30S ICs were formed with Bpy-tRNAi and rapidly mixed with 0.3 μM 50S subunits on a stopped-flow apparatus as described in [14]. Colors are as in (C). Continuous lines show best fits using an exponential function for a single reaction step. Each stopped-flow trace results from the mean of 5 to 7 replicates.
(§1) MST was calculated from the respective fluorescence time dependencies (S3 Fig). […] Symbols as in (B). […] Continuous lines indicate nonlinear regression fittings with quadratic (B and E) or same-site competition (G) functions. Three measurements were performed; mean and standard deviations are plotted (S1 Data).

30S-bound IF2 (30S IC) = biological target: T2, 30S-bound IF2 (30S IC) (Escherichia coli, UniProt P0A705); assay: ppGpp (or GDP) to GTP competitive assay for 30S IC formation by MST; assay type: binding; conditions: S4G Fig
T2 construct: 6xHis (N); made in house
Method: as §1
[…] Symbols are as indicated, 3 measurements were performed, and mean and standard deviation are plotted (S1 Data). Continuous lines show nonlinear regression fittings with a same-site inhibition model. […] (PDF) Click here for additional data file.

B1: mTufA: TufA mRNA with full-length 5′ UTR, in vitro transcribed, codes for EF-Tu (nucleic acid)
chain: GGUUCUAUCGCCUUUAAAGAAGGCUUUAAGAAAGCGAAACCAGUUCUGCUUGAGCCGAUCAUGAAGGUUGAAGUAGAAACUCCGGAAGAGAACACCGGUGACGUUAUCGGUGACUUGAGCCGUCGUCGUGGUAUGCUCAAAGGUCAGGAAUCUGAAGUUACUGGCGUUAAGAUCCACGCUGAAGUACCGCUGUCUGAAAUGUUCGGAUACGCAACUCAGCUGCGUUCUCUGACCAAAGGUCGUGCAUCAUACACUAUGGAAUUCCUGAAGUAUGAUGAAGCGCCGAGUAACGUUGCUCAGGCCGUAAUUGAAGCCCGUGGUAAAUAAGCCUAAGGGUUAAUACCAAAGUCCCGUGCUCUCUCCUGAAGGGGAGAGCACUAUAGUAAGGAAUAUAGCCGUGUCUAAAGAAAAAUUUGAACG
Q: With B1 as the molecule, how does the “MST Average” value (IF2-bound 30S IC; GTP 0.49 μM) read?
A: 1014.52 a.u.

Q: And the “MST Replicates” value (IF2-bound 30S IC; GTP 0.49 μM)?
A: 1011.10 a.u. and 1014.70 a.u. and 1017.78 a.u.

Q: What about the “MST Average” value (IF2-bound 30S IC; GTP 1.95 μM) of the same molecule?
A: 1035.39 a.u.

Q: And the “MST Replicates” value (IF2-bound 30S IC; GTP 1.95 μM)?
A: 1032.39 a.u. and 1034.94 a.u. and 1038.85 a.u.

Q: What about the “MST Average” value (IF2-bound 30S IC; GTP 3.91 μM) of the same molecule?
A: 1049.68 a.u.

Q: And the “MST Replicates” value (IF2-bound 30S IC; GTP 3.91 μM)?
A: 1044.99 a.u. and 1049.25 a.u. and 1054.80 a.u.

Q: What about the “MST Average” value (IF2-bound 30S IC; GTP 7.81 μM) of the same molecule?
A: 1070.36 a.u.

Q: And the “MST Replicates” value (IF2-bound 30S IC; GTP 7.81 μM)?
A: 1070.17 a.u. and 1070.71 a.u. and 1070.18 a.u.

Q: What about the Kd (IF2-bound 30S IC; read-out: Kd (μM) of GTP for the 30S IC programmed with the labelled mRNA, Average) of the same molecule?
A: 0.28 µM

Q: And the Kd (IF2-bound 30S IC; read-out: Kd (μM) of GTP for the 30S IC programmed with the labelled mRNA, single replicate)?
A: 0.3 µM and 0.27 µM

Q: What about the “MST Avg” value (30S-bound IF2 (30S IC); Log [GDP] 0.29) of the same molecule?
A: 1108.89 a.u.

Q: What about the “MST Replicates” value (30S-bound IF2 (30S IC); Log [GDP] 0.29) of the same molecule?
A: 1106.67 a.u. and 1109.49 a.u. and 1110.53 a.u.

Q: What about the “MST Avg” value (30S-bound IF2 (30S IC); Log [GDP] 0.59) of the same molecule?
A: 1108.25 a.u.

Q: And the “MST Replicates” value (30S-bound IF2 (30S IC); Log [GDP] 0.59)?
A: 1104.73 a.u. and 1108.81 a.u. and 1111.20 a.u.

Q: What about the “MST Avg” value (30S-bound IF2 (30S IC); Log [GDP] 0.89) of the same molecule?
A: 1106.94 a.u.

Q: And the “MST Replicates” value (30S-bound IF2 (30S IC); Log [GDP] 0.89)?
A: 1105.25 a.u. and 1107.28 a.u. and 1108.30 a.u.

Q: And the “MST Avg” value (30S-bound IF2 (30S IC); Log [GDP] 1.19)?
A: 1104.11 a.u.

Q: What about the “MST Replicates” value (30S-bound IF2 (30S IC); Log [GDP] 1.19) of the same molecule?
A: 1101.85 a.u. and 1104.36 a.u. and 1106.13 a.u.

Q: And the “MST Avg” value (30S-bound IF2 (30S IC); Log [GDP] 1.49)?
A: 1094.23 a.u.

Q: What about the “MST Replicates” value (30S-bound IF2 (30S IC); Log [GDP] 1.49) of the same molecule?
A: 1091.94 a.u. and 1094.86 a.u. and 1095.88 a.u.

Q: And the “MST Avg” value (30S-bound IF2 (30S IC); Log [GDP] 1.80)?
A: 1077.93 a.u.

Q: What about the “MST Replicates” value (30S-bound IF2 (30S IC); Log [GDP] 1.80) of the same molecule?
A: 1075.66 a.u. and 1079.00 a.u. and 1079.14 a.u.

Q: And the “MST Avg” value (30S-bound IF2 (30S IC); Log [GDP] 2.10)?
A: 1056.10 a.u.

Q: And the “MST Replicates” value (30S-bound IF2 (30S IC); Log [GDP] 2.10)?
A: 1053.33 a.u. and 1057.00 a.u. and 1057.97 a.u.

Q: What about the “MST Avg” value (30S-bound IF2 (30S IC); Log [GDP] 2.40) of the same molecule?
A: 1017.56 a.u.

Q: And the “MST Replicates” value (30S-bound IF2 (30S IC); Log [GDP] 2.40)?
A: 1014.74 a.u. and 1018.61 a.u. and 1019.33 a.u.

Q: And the “MST Avg” value (30S-bound IF2 (30S IC); Log [GDP] 2.70)?
A: 975.78 a.u.

Q: What about the “MST Replicates” value (30S-bound IF2 (30S IC); Log [GDP] 2.70) of the same molecule?
A: 973.53 a.u. and 976.74 a.u. and 977.08 a.u.
